US20030215854, “Detection of DNA-binding proteins” (published 2003)

B1: PO4 Kbfor/KBrev (dsDNA)
DNA 1: AGTTGAGGGGATCCCCAGGAGCGGCTTATCGGTCTATTCAACTCCCCTAGGGG
DNA 2: TCCTGGGGATCCCCTCAACT
modifications: 5' phosphate on Kbfor
B2: PO4 Kbfor/biotinKBrev (dsDNA)
DNA 1: AGTTGAGGGGATCCCCAGGAGCGGCTTATCGGTCTATTCAACTCCCCTAGGGG
DNA 2: TCCTGGGGATCCCCTCAACT
modifications: 5' phosphate on Kbfor

Experiments:
NF-kB p50 [1] = target: T1, NF-kB p50 (UniProt P19838 P19838:1-433); assay: bead capture with anti-p50 antibody, Luminex; dose dependent; 10 mM Tris pH 7.5, 50 mM NaCl, 2 mM KCl, 2 mM MgCl2, poly dI-dC, room temperature; conditions: tags: Promega E3770; chain copies: 2; duplex with single-stranded 3' tag
T1 sequence (P19838 1-433, one chain of several): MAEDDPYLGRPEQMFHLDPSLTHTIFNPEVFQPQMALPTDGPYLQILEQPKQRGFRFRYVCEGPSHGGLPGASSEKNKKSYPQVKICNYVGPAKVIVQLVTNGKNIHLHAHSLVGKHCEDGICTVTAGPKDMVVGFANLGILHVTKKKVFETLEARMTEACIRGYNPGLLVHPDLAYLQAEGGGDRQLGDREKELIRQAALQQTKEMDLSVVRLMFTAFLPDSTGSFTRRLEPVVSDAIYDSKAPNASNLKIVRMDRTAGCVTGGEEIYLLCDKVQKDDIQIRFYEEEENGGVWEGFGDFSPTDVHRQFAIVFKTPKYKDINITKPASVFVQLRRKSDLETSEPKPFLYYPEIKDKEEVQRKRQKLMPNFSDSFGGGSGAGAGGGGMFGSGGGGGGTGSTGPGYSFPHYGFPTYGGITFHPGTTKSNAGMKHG
Experimental: P04 Kbfor and KBrev were annealed by first diluting 100 uM oligonucleotide stocks into annealing buffer (40 mM Tris pH 7.5, 100 mM NaCl, and 1 mM EDTA), to give a ratio of 20 nM P04 Kbfor: 1 uM KBrev. 100 ul of the oligonucleotide mix was then heated to 95° C. for 1 minute, and cooled linearly to room temperature over a period of 45 minutes. 1 ul of the annealed mixture containing detection duplexes displaying a single stranded tag sequence was added to 19 ul of transcription factor binding buffer (10 mM tris pH 7.5, 50 mM NaCl, 2 mM KCl, 2 mM MgCl2) containing 250 ng poly dI-dC, and 0.5% bovine serum albumin (fraction V) and incubated with varying amounts of NF-kB P50 protein for 15 minutes at room temperature. 1800 beads suspended in 25 ul of transcription factor binding buffer containing 0.35% BSA was added to appropriate reactions and incubated 30 minutes at room temperature. Following the hybridization of DNA binding protein-detection duplex complexes to bead surfaces, 25 ul of transcription factor binding buffer containing (0.1 ug) of NF-kB P50 specific primary antibody (Santa Cruz Biotechnolgy Cat #SC-114) was added to the detection duplex-sample-bead mix and incubated for 20 minutes at room temperature in the dark while shaking. […] 25 ul of each assay were read using the Luminex 100 instrumentation.

NF-kB p50 [2] = target: T1, NF-kB p50; assay: protection from lambda exonuclease, signal approx 3600 fluorescent units with p50; poly dI-dC; conditions: tags: Promega E3770; chain copies: 2; label: 3' biotin on KBrev; duplex with single-stranded 3' tag

Binder | binding result (NF-kB p50 [1]) | binding result (NF-kB p50 [2])
B1 | binds | 
B2 |  | binds
